Assay results from publication PMC9612522.

Target: His-Pak4cat (UniProt O96013)
Chain of UniProt O96013 (O96013 286-591): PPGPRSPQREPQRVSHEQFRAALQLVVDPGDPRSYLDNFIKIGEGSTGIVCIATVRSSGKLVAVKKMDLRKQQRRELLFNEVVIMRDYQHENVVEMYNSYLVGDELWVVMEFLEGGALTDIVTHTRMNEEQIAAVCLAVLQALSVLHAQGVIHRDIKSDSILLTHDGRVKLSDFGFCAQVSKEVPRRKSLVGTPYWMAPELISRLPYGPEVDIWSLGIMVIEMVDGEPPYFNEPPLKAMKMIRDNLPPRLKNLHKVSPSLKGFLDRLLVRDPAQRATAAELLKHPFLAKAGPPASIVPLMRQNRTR

Chain of GST-Inka1-iBox (Q96EL1 166-203): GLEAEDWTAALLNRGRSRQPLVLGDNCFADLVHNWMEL
Chain of GST-Inka2-iBox (Q9NTI7 133-193): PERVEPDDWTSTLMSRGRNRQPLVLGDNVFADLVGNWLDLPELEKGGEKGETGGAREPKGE

IC50 of inhibition of His-Pak4cat kinase activity (in vitro kinase assay, ADP-Glo luminescence, AKT1 peptide substrate; dose-response with 0.75 ng-400 ng of GST-Inka1-iBox) [nM]	IC50 of inhibition of His-Pak4cat kinase activity (in vitro kinase assay, ADP-Glo luminescence, AKT1 peptide substrate; dose-response with 0.75 ng-400 ng of GST-Inka2-iBox) [nM]	Substance
67.7	–	GST-Inka1-iBox (from UniProt Q96EL1 166-203) (domain or fragment)
–	60.3	GST-Inka2-iBox (from UniProt Q9NTI7 133-193) (domain or fragment)
